The source of these data is patent US20060110356A1, “Ophthalmic drug delivery system using polymer micelle” (NANOCARRIER KABUSHIKI KAISHA, priority 2003, published 2006).

Data set [1] concerns choroidal neovascular (CNV) model. Nature of the data set: Intraocular transfer of fluorescent-labelled PIC micelle in rat CNV model (fluorescence microscopy of frozen sections). The conditions noted are these: intravenous, 400 μL of 5 mg/mL in physiological saline. In kind it is in vivo, BN rat. On the procedure:
A diblock copolymer having polyethylene glycol (PEG) as a hydrophilic polymer chain, and polyaspartic acid (P(Asp)) as an anionic polymer chain within one molecule was dispersed in water, and mixed with FITC-labelled polylysine (FITC-P(Lys)) to prepare a core-shell type PIC micelle solution (5 mg/mL) having a core of a polylon complex (PIC) consisting of P(Asp) and FITC-P(Lys), and a shell of PEG.
After generally anesthetizing a BN rat by intramuscular administration of 1 mL/kg of a mixture of a 5% ketamine hydrochloride injection and a 2% xylazine hydrochloride injection (7:1), eye drops of a 0.5% tropicamide-0.5% phenylephrine hydrochloride ophthalmic solution were administered to render mydriasis. Then, photocoagulation was carried out with a semiconductor laser photocoagulator. Photocoagulation was carried out on six scattering positions per one eye in a posterior portion of the ocular fundus while focusing on retinal deep layer (coagulation conditions: spot size 75 μm, output 200 mW, coagulation time 0.05 sec) such that irradiation of large retinal vessels was avoided. […]
Following administration, the eyeball was removed after a predetermined time, and a frozen tissue section was prepared. Thereafter, leakage of the fluorescence to the choroidal neovascular site was qualitatively observed by a fluorescence microscope.

The subject of data set [2] is skin. Particulars: rat, in vivo, iv. How it is done: As a comparative control, Photofrin was administered under the same condition.
Four hours after the administration, a xenon lamp was irradiated on the shaved part (wavelength: 377-700 nm, power density: 30 mW/cm^2, irradiation area: 4 cm^2).

Consider FITC-labelled polylysine [FITC-P(Lys)], for which the “toxicity (death of animal)” value in data set [1] was “the animal died one hour after the administration due to its toxicity”.
For the substance Photofrin, the “photosensitive erethism on the skin” value in data set [2] is recorded as “photosensitive erethism was found”.
